The record followed here is patent US20170267730A1 (UNIVERSITY COURT OF THE UNIVERSITY OF EDINBURGH, published 2017).

Residue numbers refer to the chain shown, from its start. Names may count otherwise.

Data set [1] concerns the molecule itself. As to the kind of experiment: size-exclusion chromatography with multiangle light scattering (self-association in solution, disulfide-linked dimers).
Data set [2] concerns the molecule itself. As to the kind of experiment: TEM, uranyl acetate stain (self-assembly into a 2D lattice). The source says: Multiple domains of the WT-BslA lattice could be observed in any location on the grid. The observed domain areas varied from as small as 1000 nm² (˜50 BslA molecules) up to 200000 nm² (>10000 BslA molecules). Less ordered “inter-domain” areas were also observed. […] The largest BslA-L77K domain size observed was approximately […] (1250 BslA molecules).

B1: WT-BslA truncated, BslA42-181 (other)
chain: MRTQSTASLFATITGASKTEWSFSDIELTYRPNTLLSLGVMEFTLPSGFTANTKDTLNGNALRTTQILNNGKTVRVPLALDLLGAGEFKLKLNNKTLPAAGTYTFRAENKSLSIGNKFYAEASIDVAKRSTPPTQPCGCN
notes: In solution it is a mix of monomers and disulfide-linked dimers; also called wild-type biofilm-surface layer protein A; YuaB
In the case of B1, the binding result in data set [1] was “binds”.

B2: BslA-L77K truncated (other)
chain: B1 chain with L36K
notes: also called L77K BslA; L77K-BslA
With B2, in data set [2], the binding result is recorded as “binds”.
